{
  "source": "patent US20260242515A1",
  "about": "(DUALITY BIOLOGICS SHANGHAI, published 2026)",
  "binders": {"B1": {"name": "Ab10 (antibody, human IgG1, kappa, V domains shown)", "VH": "QVQLQESGAELKRPGSSVKVSCKASGFTFPLYWMNWVRQRPGRGLEWMGRIIPIFGHTKYNEKFKDRATLTADESSSTAYMELSSLRSDDSAVYYCARGGYYYYPREGFLDYWGQGTSVTVSS", "VL": "DIVMTQSPASLSVSPGERASISCRSSQSVDYSGDSYMNWYQQKPGQSPRLLIYAASDRESGVPARFSGSKSGTDFTLKINRVEEEDAGTYYCQQSREDPFTFGQGTRVEIKR", "notes": "also called Ab10-V (variable regions)"}, "B2": {"name": "Ab15-X2 (antibody, human IgG1, kappa, V domains shown)", "VH": "QVQLQQPGAELKKPGASVKVSCKASGFTFPLYWMNWVRQRPGRGLEWIGRIIPIFGHTKYNEKFKDRATMTADESSSTAYMELSSLTSEDSAVYYCARGGYYYYPREGFLDYWGQGTSVTVSS", "VL": "DIVMTQSPDSLSVSPGERATINCRSSQSVDYSGDSYMNWYQQKPGQSPRLLIYAASDRESGVPDRFSGSGSGTDFTLKISNVEEEDAATYYCQQSREDPFTFGQGTRVEIKR", "modifications": "linker-payload X2 (camptothecin type) conjugated after TCEP reduction; DAR p=7.8 per antibody; sites not stated"}, "B3": {"name": "Ab16-X2 (antibody, human IgG1, kappa, V domains shown)", "VH": "QVQLQQPGTEVVKPGASVKLSCKASGFTFPLYWMHWVRQRPGRGLEWIGRIIPIFGHTKYNEKFKNKATLTADESSSTAYMELRSLTSDDSAVYYCARGGYYYYPREGFLDYWGQGTSVTVSS", "VL": "DIVMTQSPASLSVSPGERASISCRSSQSVDYSGDSYMNWYQQKPGQSPRLLIYAASDRESGVPDRFSGSGSGTDFTLKISRVEEEDAGTYYCQQSREDPFTFGQGTKVDIKR", "modifications": "linker-payload X2 (camptothecin type) conjugated after TCEP reduction; DAR p=7.9 per antibody; sites not stated"}, "B4": {"name": "Ab16-X1 (antibody, human IgG1, kappa, V domains shown)", "VH": "QVQLQQPGTEVVKPGASVKLSCKASGFTFPLYWMHWVRQRPGRGLEWIGRIIPIFGHTKYNEKFKNKATLTADESSSTAYMELRSLTSDDSAVYYCARGGYYYYPREGFLDYWGQGTSVTVSS", "VL": "DIVMTQSPASLSVSPGERASISCRSSQSVDYSGDSYMNWYQQKPGQSPRLLIYAASDRESGVPDRFSGSGSGTDFTLKISRVEEEDAGTYYCQQSREDPFTFGQGTKVDIKR", "modifications": "linker-payload X1 (camptothecin type) conjugated after TCEP reduction; DAR p=7.8 per antibody; sites not stated"}, "B5": {"name": "Ab1 (antibody, human IgG1, kappa, V domains shown)", "VH": "QVQLQESGAEVKRPGSSVKVSCKASGFTFPLYWMNWVRQRPGQGLEWMGRIIPIFGHTDYNEKFKDRATITRDESSNTAYMELSRLRSEDSAVYYCARGGYYYYPREGFLDYWGQGTSVTVSS", "VL": "DIVMTQSPASLSVSPGERASISCRSSQSVDYSGDSYMNWYQQKPGQSPRLLIYAASDRESGVPDRFSGSGSGTDFTLKISRVEEEDAGTYYCQQSREDPFTFGQGTKVDIKR", "notes": "also called Ab01; Ab1-V (variable regions)"}, "B6": {"name": "Ab7 (antibody, human IgG1, kappa, V domains shown)", "VH": "QVQLQESGAEVKRPGSSVKVSCKASGFTFPLYWMNWVRQRPGQGLEWMGRIIPIFGHTDYNEKFKDRATITRDESSNTAYMELSRLRSEDSAVYYCARGGYYYYPREGFLDYWGQGTSVTVSS", "VL": "DIVMTQSPASLSVSPGERASINCRSDQSVDYSGDSYMNWYQQKPGKSPRLLIYAASDRESGVPDRFSGSGSGTDFTLNINSVEEEDAGTYYCQQSREDPFTFGQGTRVDIKR", "notes": "also called Ab07; Ab7-V (variable regions)"}, "B7": {"name": "Ab4 (antibody, human IgG1, kappa, V domains shown)", "VH": "QVQLQESGAEVKRPGSSVKVSCKASGFTFPLYWMNWVRQRPGRGLEWMGRIIPIFGHTKYNEKFKDRATMTRDKSSSTAYMELSSLTSDDSAVYYCARGGYYYYPREGFLDYWGQGTSVTVSS", "VL": "DIVMTQSPSSLSVSPGERATINCRSSQSVDYSGDSYMNWYQQKPGQAPRLLIYAASDLESGVPDRFSGSGSGTDFTLNINGVEEEDAATYYCQQSREDPFTFGQGTKVEIKR", "notes": "also called Ab04; Ab4-V (variable regions)"}},
  "key": {"[1]": {"biological_target": "T1, ADAM9 on human tumor cells (LS174T, HepG2, Calu-3, Colo205) (human, UniProt Q13443 29-819)", "T1 sequence (looked up)": "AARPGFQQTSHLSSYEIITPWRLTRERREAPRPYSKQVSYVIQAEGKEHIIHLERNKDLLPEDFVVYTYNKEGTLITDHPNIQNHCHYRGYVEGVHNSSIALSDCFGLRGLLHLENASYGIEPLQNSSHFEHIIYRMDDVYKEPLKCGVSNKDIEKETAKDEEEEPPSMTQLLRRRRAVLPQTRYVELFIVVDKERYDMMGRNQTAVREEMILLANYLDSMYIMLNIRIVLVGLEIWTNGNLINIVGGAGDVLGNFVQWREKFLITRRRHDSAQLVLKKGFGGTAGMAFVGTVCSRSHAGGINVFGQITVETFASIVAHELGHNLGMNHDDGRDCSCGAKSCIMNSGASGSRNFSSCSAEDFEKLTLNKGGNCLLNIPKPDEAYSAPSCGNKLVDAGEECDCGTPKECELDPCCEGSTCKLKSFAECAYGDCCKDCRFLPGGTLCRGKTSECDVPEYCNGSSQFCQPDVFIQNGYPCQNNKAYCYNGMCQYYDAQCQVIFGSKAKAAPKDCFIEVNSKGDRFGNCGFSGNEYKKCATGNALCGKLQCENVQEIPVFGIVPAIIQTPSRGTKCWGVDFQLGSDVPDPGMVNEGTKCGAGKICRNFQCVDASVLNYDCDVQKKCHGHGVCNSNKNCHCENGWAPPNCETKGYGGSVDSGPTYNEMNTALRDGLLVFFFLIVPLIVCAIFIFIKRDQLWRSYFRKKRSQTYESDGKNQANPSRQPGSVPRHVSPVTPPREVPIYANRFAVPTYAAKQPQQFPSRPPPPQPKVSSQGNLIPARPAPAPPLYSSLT", "assay": "cell-based or functional assay"}, "[2]": {"biological_target": "T2, Human ADAM9 protein (ACROBiosystems, Cat. No. AD9-H52H7) (human, UniProt Q13443 29-697)", "T2 construct": "Bought protein; also called Human ADAM-His protein; human ADAM9 antigen; not shown: His tag", "T2 sequence (looked up)": "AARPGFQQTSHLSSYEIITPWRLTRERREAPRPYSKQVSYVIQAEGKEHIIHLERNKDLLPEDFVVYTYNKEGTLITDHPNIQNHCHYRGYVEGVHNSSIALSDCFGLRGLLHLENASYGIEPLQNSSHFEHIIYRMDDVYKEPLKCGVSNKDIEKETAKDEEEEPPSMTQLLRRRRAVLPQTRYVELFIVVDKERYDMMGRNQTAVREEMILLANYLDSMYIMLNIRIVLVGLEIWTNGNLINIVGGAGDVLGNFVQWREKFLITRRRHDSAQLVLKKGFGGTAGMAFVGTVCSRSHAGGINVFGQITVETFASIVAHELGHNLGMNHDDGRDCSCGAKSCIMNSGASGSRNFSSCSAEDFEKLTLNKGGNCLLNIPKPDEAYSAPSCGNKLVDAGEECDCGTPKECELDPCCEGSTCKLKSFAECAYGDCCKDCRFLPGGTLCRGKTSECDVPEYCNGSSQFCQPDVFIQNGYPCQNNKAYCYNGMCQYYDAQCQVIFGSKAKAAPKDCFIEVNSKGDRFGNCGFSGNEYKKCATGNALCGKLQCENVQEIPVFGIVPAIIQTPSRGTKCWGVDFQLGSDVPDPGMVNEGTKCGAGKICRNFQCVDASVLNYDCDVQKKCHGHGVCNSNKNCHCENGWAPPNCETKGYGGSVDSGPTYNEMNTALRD", "assay": "indirect ELISA, human ADAM9-His coated at 1 ug/mL", "method": "The plate was washed three times with PBST (PBS (pH 7.4) containing 0.05% Tween-20), followed by addition of 200 μL/well of blocking buffer containing 1% bovine serum albumin (BSA) diluted in PBST, and incubated at 37° C. for 1 hour for blocking. After blocking, the blocking buffer was discarded, and the plate was washed once with PBST buffer. The test antibody was diluted in PBST containing 1% BSA with a 3-fold serial dilution starting at 15 μg/mL across 11 doses, and added to the ELISA plate at 100 μL/well, followed by incubation at 37° C. for 1 hour. After incubation, the plate was washed three times with PBST, followed by addition of 100 μL/well of HRP-labeled goat anti-human secondary antibody (Rockland, Cat. No. 609-103-123) diluted in PBST containing 1% BSA, and incubated at room temperature for 45 minutes. The plate was washed six times with PBST, followed by addition of 100 μL/well of TMB chromogenic substrate (Suzhou Yacoo Chemical Reagent Co., Ltd., Cat. No. S0025), and incubated at room temperature in the dark for 10 minutes. The reaction was terminated by adding 50 μL/well of 1 M HCl, and the absorbance was measured at 450 nm using a microplate reader (Thermo, Ascent) for data analysis."}, "[3]": {"biological_target": "T2, Human ADAM9 protein (ACROBiosystems, …)", "assay": "SPR (Biacore 8K), antibody captured by anti-human Fc on CM5, ADAM9 as analyte", "method": "Chip preparation: The mouse anti-human IgG (Fc) antibody (Cat. No. 29234600, Cytiva) was diluted to 25 μg/mL in immobilization buffer (10 mM sodium acetate, pH 5.0), specifically by adding 950 μL of the immobilization buffer to 50 μL of the mouse anti-human IgG (Fc) antibody. The dilution was used for immobilization in eight channels. First, the surface of the CM5 chip was activated with 400 mM EDC and 100 mM NHS at a flow rate of 10 μL/min for 420 seconds. Then, 25 μg/mL of the mouse anti-human IgG (Fc) antibody was injected into the test channels at a flow rate of 10 μL/min for approximately 360 seconds, with the level of immobilization at approximately 7000 to 14000 RU. Finally, the chip was blocked with 1 M ethanolamine at a flow rate of 10 μL/min for 420 seconds. The reference channels underwent the same procedures as the test channels.\nLigand capture: Antibodies Ab10, Ab15, Ab16, and hMAB-A (2I.2) were diluted to 4 μg/mL in running buffer (containing 10 mM N-(2-hydroxyethyl)piperazine-N-2-ethanesulfonic acid (HEPES), 150 mM sodium chloride (NaCl), 3 mM ethylenediaminetetraacetic acid (EDTA), 0.005% Tween-20, pH adjusted to 7.4) and injected into the test channels for human IgG (Fc) capture at a flow rate of 10 μL/min at approximately 200 RU. No ligand capture was performed in the reference channels.\nAnalyte multi-cycle analysis: Human and cynomolgus ADAM9 proteins (human ADAM9 protein purchased from ACRO, Cat. No. AD9-H52H7; monkey ADAM9 protein purchased from ACRO, Cat. No. AD9-C52H7) were diluted 2-fold in running buffer (Table 10). The diluted human or cynomolgus ADAM9 protein was sequentially injected into the test channels and the reference channels at a flow rate of 30 μL/min, with corresponding association and dissociation times. Both the association and dissociation steps were performed in the running buffer. After each concentration analysis, the chip was regenerated with 3 M magnesium chloride at a flow rate of 20 μL/min for 30 seconds to wash away the ligand and any undissociated analyte. For the next concentration analysis, the test channels required re-capture of the same amount of ligand."}, "[4]": {"biological_target": "T1, ADAM9 on human tumor cells (LS174T, …)", "assay": "cell-based or functional assay", "remark": "listed apart in the source"}},
  "data": [
    {"binder": "B1", "values": [
      {"measurement": "EC50 for internalization", "setting": "[1]", "value": 0.16, "unit": "nM"},
      {"measurement": "Maximum internalization rate (%)", "setting": "[1]", "value": 81.3, "unit": "%"},
      {"measurement": "EC50", "setting": "[2]", "value": 0.059, "unit": "nM"},
      {"measurement": "Top (OD450)", "setting": "[2]", "value": 3.4, "unit": "OD450"},
      {"measurement": "Kd", "setting": "[3]", "value": 17.5, "unit": "nM"},
      {"measurement": "koff", "setting": "[3]", "value": 0.00255, "unit": "s⁻¹"},
      {"measurement": "kon", "setting": "[3]", "value": 146000, "unit": "M⁻¹ s⁻¹"}
    ]},
    {"binder": "B2", "values": [
      {"measurement": "IC50 (nM), proliferation inhibition of Colo205 cells (CTG, 6 days)", "setting": "[4]", "value": 28.5, "unit": "nM"},
      {"measurement": "IC50 (nM), proliferation inhibition of LS174T cells (CTG, 6 days)", "setting": "[4]", "value": 11.6, "unit": "nM"}
    ]},
    {"binder": "B3", "values": [
      {"measurement": "IC50 (nM), proliferation inhibition of Calu-3 cells (CTG, 6 days)", "setting": "[4]", "value": 3.83, "unit": "nM"},
      {"measurement": "IC50 (nM), proliferation inhibition of Colo205 cells (CTG, 6 days)", "setting": "[4]", "value": 29.8, "unit": "nM"},
      {"measurement": "IC50 (nM), proliferation inhibition of LS174T cells (CTG, 6 days)", "setting": "[4]", "value": 8.97, "unit": "nM"}
    ]},
    {"binder": "B4", "values": [
      {"measurement": "IC50 (nM), proliferation inhibition of Calu-3 cells (CTG, 6 days)", "setting": "[4]", "value": 8.6, "unit": "nM"}
    ]},
    {"binder": "B5", "values": [
      {"measurement": "EC50", "setting": "[2]", "value": 0.052, "unit": "nM"},
      {"measurement": "Top (OD450)", "setting": "[2]", "value": 3.12, "unit": "OD450"}
    ]},
    {"binder": "B6", "values": [
      {"measurement": "EC50", "setting": "[2]", "value": 0.06, "unit": "nM"},
      {"measurement": "Top (OD450)", "setting": "[2]", "value": 3.31, "unit": "OD450"}
    ]},
    {"binder": "B7", "values": [
      {"measurement": "EC50", "setting": "[2]", "value": 0.055, "unit": "nM"},
      {"measurement": "Top (OD450)", "setting": "[2]", "value": 3.06, "unit": "OD450"}
    ]}
  ]
}
